This is an account of results in the nanobody polyreactivity screen of Harvey et al. (2022).

The nature of this data set: yeast display, Sf9 membrane polyspecificity reagent, FACS + sequencing; frameworks hold sequencing errors. Put shortly: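 After 36–48 hours of galactose induction, yeast (Saccharomyces cerevisiae BJ5465) displaying a synthetic nanobody library were stained at 4 °C for 1 hour with 10% biotinylated, detergent-solubilized Sf9 membrane reagent. Streptavidin microbeads enriched the stained cells before FACS sorting into low and high (top ~1%) gates on anti-HA and streptavidin fluorescence. Each clone's polyreactivity label reflects its gate of origin.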
As for “QVQLVESGGGLVQAGGSLRLSCAASGSTFSSNAMGWYRQAPGKERELVAAITTSGGSTYYADSVKGRFTISRDNAKNTVYLEMNSLKPEDTAVYYCAADLVHASQWSIFLYGYWGQGTQVTVSS”, the “polyreactivity (PSR sort gate)” value was “low polyreactivity”.
The entry for “QVQLVESGGGLVQAGGILRLSCAASGSIFEYNAMGRYRKPPGKERELCASISWSGGSTYYADSVKGRYTISRDNAKNTVYLQMYSLKPEATAVYYCNVRKWSRWFRESYYWGQGTQVTVSS” is “high polyreactivity”; for “QVQLEDSGGGLVQAGGRLRLTCAASGSIFSLNAMGWSRKAPGKERELVAAINSGGTTNYADSVKGRFTISRDNAKNTVYLQMNSLKPEDSAVYYCATDGYYYYYRVYKFDYWGLGTQVTVSS” it is “low polyreactivity”; for “QVQLVESGGGLVQAGGSLRLSCAASGLIFYTYAMGWYRQAPGNERELVADINRSDGSTYYADSVKGRFTISRDNAKNTVYLQMNSLKPEDTAVYYCAVVGPYYSRFGGRYYYWGQGTQVTVSS” it is “low polyreactivity”.
Then “QVQLVESGGGLVQAGGSLRLSCAASGFTFGGYAMGWYRQAPGKERELVAAITGSGGNTFYADSVKGRFTISRDNAKNTVYLQMNSLKPEDTAVYYCAALAPYIGGVDYDYWGQGTQVTVSS”, with “low polyreactivity”; and “QVQLVESGGGLVQAGGSLRLSCAASGSTFYQYVMGWYRQAPGKERELVAAISGSGGSTYYADSVKGRFTISRDNAKNTVYLQMNSLKPEDTAVYYCAAVGRSKRDGYWGQGTQVTVSS”, with “high polyreactivity”; and “QVQLVESGGGLVQAGGSLRLSCAASGSIFNYYAMGWYRQAPGKERELVAGITTSGGSTYYADSVKGRFTISRDNAKNTVYFQMHSLKPEDTAVYYGAAYDYISSTYFLDDYWGQGTQVTVSS”, with “low polyreactivity”.
Then “QVQLVESGGFLDQAGGSLRLSCAASGFTFYYYAMGWYRQAHAKERELVAAITARGVSTYYADSVKGRFTISRDNAKNTVYLQMNRLNPEDTAVYYCAKRRYYYAPAIPGYYYWGQGTKVTVSS”, with “high polyreactivity”; and “QVQLVESGGGLVQAGGSLRLSCAASGTIFLVYAMGWYRQAPGKERELVAAITFSGGDTYADSVKGRFTISRDNAKNTVYLQMNSLKPEDTAVYYCNAPWPFYGSVVGQDFDYWGQGTQVTVSS”, with “low polyreactivity”.
“QVQLVESGGGLVQAGGSLRLSCASSGRTFTRYAMGWYRQAPGKERELVAAITGGGTTNYADSVKGRFTISRDNAKNTVYLQINSLKPEDTAVYYCAADEQDVFAPGLYFWGQGTQVTVSS”: the “polyreactivity (PSR sort gate)” value is “low polyreactivity”.
The entry for “QVQLVESAGGLVQEGGSLRISCAASGRIFFYYSMGWYRQAPGKERELVAAISQSGGSTYYADSVKGRFTISRDNAKNTVYLQMNSLKPEDTAVYYCNAADPYYDTSAVAGDYWGHGTQVTVSS” is “low polyreactivity”.
For “QVQLVDSGGGLVQAGGSLRLSCAASGLTFIRYAMGWYRQAPGKERELVAAITRGGTRTYYADSVKGRFTISRDNAKNTVYLQMNSLKPEDTAVYYCAALSRYGRFDYWGQGTQVTVSS”, the “polyreactivity (PSR sort gate)” value is given as “high polyreactivity”.
Consider “QVQLVESGGGLVQAGGSLRLSCAASGLIFRYYAMGWYRQAPGKERELVAAIDGSDGITYYADSVKGRFTISRDNAKNTVYLQMNSLKPEDTEVYYCDAAFYYWGQGTQVTVSS”, for which the “polyreactivity (PSR sort gate)” value is given as “low polyreactivity”.
Then “QVQLVESGGGLVQAGGSLRLSCAASGSIFAYNAMGWYRQAPGKVREFVAVITRSDDSTYADSVKGRFTISRDNAKNTVYLQMNSLKPEDTAVYYCAAQPFDIDGGYRVDYWRQGTQVTVSS”, with “low polyreactivity”.
The entry for “QVQLVESGGGLVQEGGSLRVSCAASGRIFANNAMAGYRQAPGKERELLAAISWSGGNTYYADSVKGRFTISRDNAKNTVYVQMNSLKPDDTAVYYCGAGSPRYSNNYVSYKGWDYSCGQGTQVTVSS” is “high polyreactivity”; for “QVQIVESGGGLVQAGGSLRLSCAASGFIFPANAMGWYRQAPGKEREFVAVISYSGGRTYYADSVKGRFTISRDNAKNTVYLQMNSLKPEDTSVYYCNVVRVATWGYDYWGQGSQVTVSS” it is “low polyreactivity”; for “QVQLVESGGGLVQAGGSLRLSCAASGRIFLYYTMGWYRQAPGKERELVADITWRGGSTYYADSVKGRFTISRDNAKNTVYLQMNSLKPVDTAVYYCNAVSVSSNRSDYWGQGTQVTVSS” it is “low polyreactivity”.
As for “QVQLVESGGGLVQGGGSLRLSCAASGSTIPSYAMGCYRQAPGKERELVASITYSDGTTRYADSVKGRFTISRDHAKNPVYLQMNSLIPEDTELYSCNAVYYREGMDYWGQGTQVTVSS”, the “polyreactivity (PSR sort gate)” value is “low polyreactivity”.
Consider “QVQLVESGGGLVQAGGSLRLSCAASGGTFHRYAMGWYRQAPGKERELVAAISGSGASTYYADSVKGRFTISRDNAKNTVYLQMNSLKPEDTAVYYCNALWYYQIGPRGDHWGQGTQVTVSS”, for which the “polyreactivity (PSR sort gate)” value is “high polyreactivity”.
Then “QVQLVESGGGLVQAGGSLRLSCAASGRIIGLYTMGWYRQAPGKERELVAAINIRGTRTYYADSVKGRFTISRDNAKNTVYLQMNSLKPEDTSVYYCARSPVVVGSFLSYDYWGQGTQVTVSS”, with “high polyreactivity”; and “QVHLVESGGGLVQAGGRLRLSCAASGSIFFRYAMGWYRQAPGKERELVAAINSRGGRTYYADSVKGRFTISRDNAKNTVYLQMNSLKPEDTAVYYCAAKGYWAKGGKTYGGYDYWGQGTQVTGSS”, with “high polyreactivity”; and “EEELVESGGGLVQAGGSSLRLSCAASGFIFVSNAMGWYRQAPGKERELVASIRWSDGSTFDADSVKGRFTNSRDNAKNTVYLQMNSLKPEDTAVYYCNAVYEHRRVGWVTIDYGYWGQGTQVTVSA”, with “low polyreactivity”.
The entry for “QFQLVESGGGLVQAGGSLRLSCAASGSTFDPNAMGGYRQAPGKERELVASITSRGGSTYYADSVKGRFTISRDNAKNTVYLQMNSLKPEDTAVYYCAAVGGATYSWNGYSWYPWHNYWGQGTQVTVSS” is “low polyreactivity”.
Then “QVQLVESAGALVQEGGSLRLICAASGFTFLKNAMGWYRQAPGKERELVDGISRSGGSTYYADSVKRRFTISRDKAKNPDYLQMNSQKPEDPAVYYCAAGTVQSYTWLPTRGDYWGQGSQVTVSS”, with “high polyreactivity”; and “QVQLVESGGGLVQAGGSLRLICAASGNTIIRYAIGWFRQAPGKERELVAAISYSGGRTYYADSVKGRFTISRDNAKNTVYLQMNSVKPEDTAVYYCNAASRYGGDYWGQGTQVTVSS”, with “low polyreactivity”.
For “QVQLVESGGGLVQAGGSLRLSCAASGRIFTGNAMGWYRQAPGKERELVASITYNGGRTYYADSVKGRFTISRDKAKNTVYLPMNRLKPEDTAVYYCNAGDYGFGYEYWGQGTQVTVSS”, the “polyreactivity (PSR sort gate)” value is given as “low polyreactivity”.
The entry for “QVQLVESGGGLVQAGGSLRLSCAASGRIFTGYAMGWYRQAPGKEREFVAAITGRGGSTYYADSVKGRFTISRDNAKNTVYLLMNSLKPEDTAVYYCNALPRSPWYYRGDYWGQGTQVTVSS” is “high polyreactivity”; for “QVQLVESGGGLVQAGGSLRLSCAASGRTFSYNAMGWYRQAPGKERELVAAITWRGSTTYYADSVKGRFTISRDNAKNTVYLQMNSLKPEDTAVYYCAADTGQPYILDYWGQGTQVTVSS” it is “low polyreactivity”.
Then “QVQLVESGGGLVQAGGSLRLSCAASGSIFALYAMGWYRQAPGQERELVAAISYRGGRTYYADSVKGRFTISRDNAKNTVYLQMNSLKPEDTAVYYCNARAFPFGTGVQGFGFGYWGQGTQVTVSS”, with “low polyreactivity”.
The entry for “QVQLVESGGCLVQAGGSLPLSCAASGIIFAQYVMGWYIQATGKESELVAAIRTSGGRTYYADSVKGRFTISRDNSKNTVYLQMNSLKPEDTAVYYCAAYGKPTFRSVDYWGQGTQVTVSS” is “high polyreactivity”.
For the sequence “QVQLVESGGGLVQAGGSLRLSCAASGFILSDNAMGWYRQAPGKEREFVAAITSSGGSTHYADSVKGRFTISRDNAKNTVYLQMNSLKPEDTAVYYCAVGRPYWYDVWSFVSHYDYWGQGTQVTVSS”, the “polyreactivity (PSR sort gate)” value is listed as “low polyreactivity”.
Regarding “QVQLVESGGGLVQAGGSLRLSCADSGRTFTNNAMGWYIQAPGKERELVAAITSGGRTNYADSVKGRFTISRDNAKNTVYLQMNSLKPEDTAVYYCAARIPSDGYYYWGQGTQVTVSS”, the “polyreactivity (PSR sort gate)” value is given as “high polyreactivity”.
Then “QVQLVESGGGLVQAGGSLRLSCAAYGRIFTINAMGWYRQAPGKERELVASIRSTGGSTYYADSVKGRFTISRDNAKNTVYLQMNSLKPEDTAVYYCAADGGVAWGYGYWGQGTQVTVSS”, with “low polyreactivity”; and “QVQLVESGGGLVQAGGSLRLSCAASGSTIIRNTMGWYRKAPGKERELVAAITRSGGSTFYADSVKGRFTISRDNAKNTVYLQMNSLKPEDTAVYYCAAVRSKLYYYWGQGTQVTVSS”, with “high polyreactivity”.
The entry for “QVQLVESGGGLVQAGGSLRLSCAASGSTFVKYVMGRYRQAPGKERELVAAISRSSVRTYYADSVKGRFTISRDNAKNTVYLQMNSLKPEDTAVYYCAVVLSTYSYADYDYWGQGTLVTVSS” is “high polyreactivity”; for “QVQLVESGGGLVQAGGSLRLSCAASGSSFIINAMGWYRKAPGKERELVAAITSGGSTSYADSVKGRFTISRDNAKYTVYLQMNSLNPEDTAVYYCATDHDIGYNFNRYDYWGLGTQVTVSS” it is “low polyreactivity”.
Then “QVQLVESGGGLVQAGGSLRLSCAASGSTFWPYALGWYRQAPVKERELVAAITNSGGSTYYADSVKGRFTISRDNAKNTVYLQMNSLKPEDTAVYYCAVRGVIYSYTPVNSYVFWGQGTQVTVSS”, with “low polyreactivity”.
In the case of “QVQLVESGGGLVQAGGSLRLSCAASGRTFGRYAMGWYRQAPGKERELVAAISYSTDSTYYADSVKGRFTISRDNAKNTVYLQMNSLKPEDTAVYYCASDSVIVGSYVGDKHDYWGQGTQVTVSW”, the “polyreactivity (PSR sort gate)” value is recorded as “low polyreactivity”.
Then “QVQLVESGGGLVQAGGSLRLSCAASGIIFANNAMGWYRQAPGKERELVARISRSGGGTYYADSVKGRFTISRDNAKNTVYLQMNSLKPEDTAVYYCNAESSYYYGTAAYEYWGQGTQVTVSS”, with “low polyreactivity”; and “QVQLVDSGGGLVQAGGSLRLSCAASGSIFTYNGKVWYRQAPGKEREFVAAITWTGGSTYADSVKGRFTISSDNSNNTVYLQMNSLKREDTAVYYCAAVRRISWYTPVNTRRYYYWGQGTQVTVSS”, with “high polyreactivity”.
